Substitutions are numbered along the chain they refer to. Names may count otherwise.
B1: Δ2-6 His2: SP1 variant Δ2-6 His2, SEQ ID NO:8 (protein)
chain: MHKLVKHTLLTRFKDEITREQIDNYINDYTNLLDLIPSMKSFNWGTDLGMESAELNRGYTHAFESTFESKSGLQEYLDSAALAAFAEGFLPTLSQRLVIDYFLY
modifications: Sp1 mutant variant His inserted into position 2 together with a deletion of amino acid 2-6
B2: Cys2 K18R Gly19: Insertion of Cys residue in position 2 and of glycine residue in position 19, K18R (Cys2loop1RGd), SEQ ID NO:11 (protein)
chain: MCATRTPKLVKHTLLTRFRGDEITREQIDNYINDYTNLLDLIPSMKSFNWGTDLGMESAELNRGYTHAFESTFESKSGLQEYLDSAALAAFAEGFLPTLSQRLVIDYFLY
modifications: Sp1 mutant variant Cys inserted into position 2, K18R mutated and a Gly inserted into position 19
B3: R23A: SP1 mutant R23A, SEQ ID NO:12 (protein)
chain: MATRTPKLVKHTLLTRFKDEITAEQIDNYINDYTNLLDLIPSMKSFNWGTDLGMESAELNRGYTHAFESTFESKSGLQEYLDSAALAAFAEGFLPTLSQRLVIDYFLY
modifications: Sp1 mutant variant R23A mutated
B4: I30A: SP1 mutant I30A, SEQ ID NO:14 (protein)
chain: B3 chain with A23R, I30A
modifications: Sp1 mutant variant I30A mutated
B5: D38A: SP1 mutant D38A, SEQ ID NO:17 (protein)
chain: B3 chain with A23R, D38A
modifications: Sp1 mutant variant D38A mutated
B6: Y108A: SP1 mutant Y108A, SEQ ID NO:24 (protein)
chain: B3 chain with A23R, Y108A
modifications: Sp1 mutant variant Y108A mutated
B7: T34A: SP1 mutant T34A, SEQ ID NO:16 (protein)
chain: B3 chain with A23R, T34A
modifications: Sp1 mutant variant T34A mutated
B8: E68A: SP1 mutant E68A, SEQ ID NO:19 (protein)
chain: B3 chain with A23R, E68A
modifications: Sp1 mutant variant E68A mutated
B9: D27A: SP1 mutant D27A, SEQ ID NO:13 (protein)
chain: B3 chain with A23R, D27A
modifications: Sp1 mutant variant D27A mutated
B10: N31A: SP1 mutant N31A, SEQ ID NO:15 (protein)
chain: B3 chain with A23R, N31A
modifications: Sp1 mutant variant N31A mutated
B11: HH2: SP1 N-terminus modification HH2, SEQ ID NO:4 (protein)
chain: MHHATRTPKLVKHTLLTRFKDEITREQIDNYINDYTNLLDLIPSMKSFNWGTDLGMESAELNRGYTHAFESTFESKSGLQEYLDSAALAAFAEGFLPTLSQRLVIDYFLY
modifications: Sp1 mutant variant 2X His inserted into position 2
B12: 6H2: six histidine N-terminal tagged SP1, SEQ ID NO:7 (protein)
chain: MHHHHHHATRTPKLVKHTLLTRFKDEITREQIDNYINDYTNLLDLIPSMKSFNWGTDLGMESAELNRGYTHAFESTFESKSGLQEYLDSAALAAFAEGFLPTLSQRLVIDYFLY
B13: F106A 6XH2: SP1 mutant F106A 6XH2, SEQ ID NO:23 (protein)
chain: B12 chain with F112A
modifications: Sp1 mutant variant 6Xhis inserted into position 2 and F106A mutated
B14: N31A T34A 6XH2: SP1 mutant N31A T34A 6XH2, SEQ ID NO:30 (protein)
chain: B12 chain with N37A, T40A
modifications: Sp1 mutant variant 6Xhis inserted into position 2, N31A and T34A mutated
B15: S73A S75A 6XH2: SP1 mutant S73A S75A 6XH2, SEQ ID NO:28 (protein)
chain: B12 chain with S79A, S81A
modifications: Sp1 mutant variant 6Xhis inserted into position 2, S73A and S75A mutated
B16: D38A S75A 6XH2: SP1 mutant D38A S75A 6XH2, SEQ ID NO:29 (protein)
chain: B12 chain with D38A, D44A, S75A, S81A
modifications: Sp1 mutant variant 6Xhis inserted into position 2, D38A and S75A mutated
B17: Δ2-7 Cys2: SP1 variant Δ2-7 Cys2, SEQ ID NO:9 (protein)
chain: MCLVKHTLLTRFKDEITREQIDNYINDYTNLLDLIPSMKSFNWGTDLGMESAELNRGYTHAFESTFESKSGLQEYLDSAALAAFAEGFLPTLSQRLVIDYFLY
modifications: Sp1 mutant variant Cys inserted into position 2 together with a deletion of amino acid 2-7
B18: Δ2-6 I40C: SP1 Loop 2 modification Δ2-6 I40C, SEQ ID NO:18 (protein)
chain: B17 chain with C2K, I35C
modifications: Sp1 mutant variant amino acids 2-6 deleted and I40C mutated
B19: Δ2-6 L81C: SP1 variant Δ2-6 L81C, external perimeters of the dodecamer ring, SEQ ID NO:22 (protein)
chain: B17 chain with C2K, L76C
modifications: Sp1 mutant variant amino acids 2-6 deleted and L81C mutated
B20: 42-6 S73C: SP1 Loop 4 modification, printed 42-6 S73C, SEQ ID NO:21 (protein)
chain: B17 chain with C2K, S68C
modifications: Sp1 mutant variant amino acids 2-6 deleted and S73C mutated
B21: Δ2-6 E72C: SP1 Loop 4 modification Δ2-6 E72C, SEQ ID NO:20 (protein)
chain: B17 chain with C2K, E67C
modifications: Sp1 mutant variant amino acids 2-6 deleted and E72C mutated

Assays:
[1] = Heat stability (no precipitation after heat treatment); conditions: 10 min at 100° C. or 30 min at 85° C.
[2] = Oligomeric complex formation by SDS PAGE (unboiled samples); conditions: for Complex Formation: SDS PAGE, samples not boiled in the application buffer
Experimental: SP1 (20 μg) was prepared in SDS sample buffer at different SP1-monomer: SDS molar ratios and boiled (or not) (5 mM) prior to SDS-PAGE analysis. Heat stability of SP1 oligomer (10 μg) was tested in the same buffer at SP1-monomer: SDS=1:1733 and heated for 1 to 10 mM at different temperatures.
Purified 6HSP1 and ΔNSP1 were first denatured to the monomeric forms by boiling the proteins in SDS sample buffer. The denatured proteins were then separated in preparative SDS-PAGE, and visualized by Coomassie blue staining. The monomeric forms of two recombinant protein bands were excised. Gel slices that carried monomeric form of 6HSP1 (SEQ ID NO:7) and ΔNSP1 (SEQ ID NO:2) were mixed at 1:1 ratio (v/v). In order to enhance the surface/volume ratio, the gel slices were pulverized using a pestle and mortar in the presence of liquid nitrogen. […] The hetero-oligomeric complex was isolated by subjecting the eluated protein to Ni-NTA Agarose beads and the bound proteins were eluted by 400 mM imidazole using a standard procedure (Sigma protocol for P 6611). […] The composition of hetero-oligomeric SP1 was determined by SDS-PAGE and visualized by silver staining.

[3] = Protein melting point by DSC; assay type: physicochemical; conditions: protein melting point by DSC; in °C (unit assumed)
Experimental: Differential scanning calorimetry study of SP1 indicates in a Tm of 107° C. for SP1. […] Further, folding and refolding of inclusion bodies including insoluble SP1, and the heat stability of the unfolded proteins indicate that the intact monomer, as well as the oligomer, is heat resistant (FIG. 5).

| Molecule | Heat stability [1] | oligomeric complex formation, stability and resistance ([2]; boiling and protease stability) | Tm [3] | Complex Formation [2] |
| --- | --- | --- | --- | --- |
| B1 | + |  |  |  |
| B2 | + | formed a boiling stable and protease resistant dodecamer |  |  |
| B3 | + |  | 108 |  |
| B4 |  |  | 98 |  |
| B5 | + |  | 113 |  |
| B6 |  |  | 68 |  |
| B7 | + |  | 114 |  |
| B8 | + |  | 105.8 |  |
| B9 | + |  |  |  |
| B10 | + |  | 110 |  |
| B11 | + |  |  |  |
| B12 |  |  | 109 |  |
| B13 |  |  | 75 |  |
| B14 |  |  | 96.6 |  |
| B15 | + |  |  |  |
| B16 | + |  | 112 |  |
| B17 | + |  |  |  |
| B18 | + |  |  |  |
| B19 | + |  |  |  |
| B20 | + |  |  | 11 |
| B21 | + |  |  | 10 |
